Molecular target: polymerization-deficient p62 PB1 domain D69A/D73A (human) (UniProt Q13501)
Assay: ITC

Kd: 26.8 nM
B1: MEKK3 PB1 domain, residues 43-127 (ITC) (domain or fragment)
chain: SDVRIKFEHNGERRIIAFSRPVKYEDVEHKVTTVFGQPLDLHYMNNELSILLKNQDDLDKAIDILDRSSSMKSLRILLLSQDRNH

Source: doi:10.1101/671792
